The experiment deals with cynomolgus GITR (cyGITR), soluble analyte (cynomolgus). Nature of the experiment: SPR (Biacore T200), 37 C; antibody captured on anti-human Fc chip, GITR as analyte; 1:1 Langmuir fit.

Experimental findings from US20200031947A1 are described below.

Bounds are passed on as bounds.

As usually defined, the Kd is the concentration at which binding is half-saturated. A low value points to tighter binding. Broadly, the koff is a measure of how fast the partners let go of each other. A high value points to a short-lived complex.

B1: h3G7 H1 (antibody, V domains shown)
VH: EVQLVESGGGLVQPGGSLRLSCAASGFTFSDYTMNWVRQAPGKGLEWVALINPYNGGIRYNQKFKGRFTISRDNAKNSLYLQMNSLRAEDTAVYYCARIGGYYDSMDYWGQGTLVTVSS
VL: DIQMTQSPSSLSASVGDRVTITCRASESVDNFGINFLNWYQQKPGKAPKLLIYAASNQGSGVPSRFSGSGSGTDFTLTISSLQPEDFATYYCQQSKELPWTFGGGTKVEIK
In turn, B1 yielded a Kd of over 100 nM, a koff of 0.078 s⁻¹ and a t1/2 of 9 s.
